Results reported in patent US20180335433A1, “COMPOSITIONS TARGETING PKC-THETA AND USES AND METHODS OF TREATING PKC-THETA PATHOLOGIES, ADVERSE IMMUNE RESPONSES AND DISEASES” (La Jolla Institute for Allergy and Immunology, priority 2011, published 2018).

What was measured:
Type in all cases: cell-based, mouse
endogenous PKCθ = experiment: IS localization in OT-II CD4+ T cells conjugated with Ova-loaded APCs (confocal); details: OT-II TCR-Tg CD4+ T cells
Procedure: (FIG. 6A) OT-II CD4^+ T cells were infected with retrovirus expressing Myc-tagged V3 domain, V3 mutated at P330/1/4/6A (V3-4PA), or PR motif-deleted V3 (V3-ΔPR). Infected cells (green) were harvested, stimulated, and fixed. Conjugates were stained with anti-Myc plus a secondary Alexa 555-coupled antibody (orange), and anti-PKCθ plus a secondary Alexa 647-coupled antibody (red). Cells were analyzed as in FIG. 1A. (FIG. 6B) Quantitative analysis of the results shown in (FIG. 6A) from 30-50 T-APC conjugates. ** p<0.05. (FIG. 6C) MCC-specific T hybridoma cells were cotransfected with indicated vector, together with RE/AP-Luc and β-Gal reporter plasmids. Cells were stimulated and analyzed as in FIG. 1C. (FIG. 6D) Naïve CD4^+ T cells from B6 mice stimulated with anti-CD3 plus anti-CD28 mAbs and differentiated in vitro under Th1-, Th2- or Th17-polarizing conditions were retrovirally transduced with empty pMIG vector, or with the indicated PKCθ V3 vectors. Cytokine-producing cells were analyzed by intracellular staining 8 h after restimulation. Right panels represent cumulative data showing percentage of cytokine-producing cells by intracellular staining. (FIG. 6E) MCC-specific T hybridoma cells were cotransfected with the indicated plasmids, together with NFAT luciferase reporter and a β-Gal reporter plasmid. Cells were incubated with fibroblasts that express I-E^K and B7-1 in the absence or presence of MCC peptide for 6 hrs. Normalized luciferase activity was determined in triplicates.
Full-length human PKCθ and its derivatives were cloned as a GFP fusion protein in the pMX retroviral vector. Retroviral supernatants were used to infect preactivated CD4^+ T cells from PKCθ^−/− or WT OT-II mice. Transduced cells were rested for an additional three days. On the day of experiment, APC were prepared from WT B6 splenocytes that were depleted of CD4^+ T cells using anti-CD4 (L3T4) mAb-coated beads. T-depleted APC were stained with 20 μM of cell tracker blue (CMAC) and then pulsed with 5 μM Ova peptide, respectively, for 30 min at 37° C. T cell-APC conjugation was carried out at 37° C. for 20 min before fixation with 4% paraformaldehyde and permeabilization with PBS supplemented with 1% BSA and 0.1% Triton X-100. […] Immunofluorescene images were captured using a Marianas digital fluorescence-microscopy system (Intelligent Imaging Innovations) as described (Becart, S. et al. Immunity 29, 704-719 (2008)).
Given the critical role of the PKCθ V3 domain in the enzyme's CD28 association, IS localization, and activation of downstream targets, ectopic expression of the isolated V3 domain was analyzed for interference with the localization and function of PKCθ in stimulated T cells. […]

[1] = system: B6 CD4+ T cells, Th2 differentiation; experiment: In vitro Th2 differentiation of retrovirally transduced CD4+ T cells; details: ectopic expression, Th2 differentiation conditions
Procedure: (§1) (FIG. 6A) OT-II CD4^+ T cells were infected with retrovirus expressing Myc-tagged V3 domain, V3 mutated at P330/1/4/6A (V3-4PA), or PR motif-deleted V3 (V3-ΔPR). Infected cells (green) were harvested, stimulated, and fixed. Conjugates were stained with anti-Myc plus a secondary Alexa 555-coupled antibody (orange), and anti-PKCθ plus a secondary Alexa 647-coupled antibody (red). Cells were analyzed as in FIG. 1A. (FIG. 6B) Quantitative analysis of the results shown in (FIG. 6A) from 30-50 T-APC conjugates. ** p<0.05. (FIG. 6C) MCC-specific T hybridoma cells were cotransfected with indicated vector, together with RE/AP-Luc and β-Gal reporter plasmids. Cells were stimulated and analyzed as in FIG. 1C. […] Cytokine-producing cells were analyzed by intracellular staining 8 h after restimulation. […] Normalized luciferase activity was determined in triplicates. […]
(§2) Investigators have reported that the Th2 and Th17 immune responses are compromised in PKCθ^−/− mice, whereas the Th1 response remains relatively intact (Marsland, B. J. et al. J Exp Med 200, 181-189 (2004); Salek-Ardakani, S. et al. J Immunol 173, 6440-6447 (2004); Salek-Ardakani, S., et al. J Immunol 175, 7635-7641 (2005)). Therefore, ectopic expression of V3 was analyzed for inhibition of Th differentiation. […]

[2] = system: B6 CD4+ T cells, Th17 differentiation; experiment: In vitro Th17 differentiation of retrovirally transduced CD4+ T cells; details: ectopic expression, Th17 differentiation conditions
Procedure: as §1, §2

B1: V3 domain: amino acid 282-379 of human PKCθ with N-terminal Myc tag, expressed from pMIG retroviral vector (protein)
chain: GINQKLMAEALAMIESTQQARCLRDTEQIFREGPVEIGLPCSIKNEARPPCLPTPGKREPQGISWESPLDEVDKMCHLPEPELNKERPSLQIKLKIED
modifications: left off: small tags and cut ends
notes: amino acid 282-379 of human PKCθ with N-terminal Myc tag, expressed from pMIG retroviral vector
- effect on IS localization of endogenous PKCθ (endogenous PKCθ): sequestered from the IS
- subcellular localization of the transduced V3 protein (endogenous PKCθ): translocated to and selectively localized in the IS
- inhibition of Th2 differentiation [1]: ~75%
- inhibition of Th17 differentiation [2]: ~75%
